Laboratory results: the supplement of paper PMC12042874
± gives the uncertainty stated by the source.

assay: amyloid nucleation score (Sup35N fusion, yeast selection) (log enrichment); library NNK2; higher = more nucleation; inactive = no reads after selection
Method in brief: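 Using DiMSum, nucleation scores were taken as the log enrichment of output over input reads, centred on the mode score of non-aggregating sequences. The input and output reads came from Illumina sequencing of plasmid inserts, with sequences under 100 input reads excluded. The yeast were psi-negative, expressed Sup35N fused to peptides of 20 random codons, were induced with 100 μM copper sulfate for 24 hours, and were grown 7 days at 30°C on medium lacking adenine and uracil.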

First: SSYLPLQSTAIGHHSSRYGL
Second: MYLVRIR
The amyloid nucleation score of the first is higher: 1.08 ± 0.34 for the first, 0.316 ± 0.42 for the second.

Going from QIPNILVGNDMICVKKVLNW to VVFFNGACALATLAAVSLGP, the amyloid nucleation score rises from 2.97 ± 0.051 to 6 ± 0.062.

First: DIRCDLGRVFN
Second: SSRSDAIFIAICLNFIKGKM
The amyloid nucleation score of the first is lower: -0.17 ± 0.79 for the first, 1.32 ± 0.33 for the second.

TDLASKAS and STRSGGLKQSVPLSRPP are within error of each other in amyloid nucleation score: -0.194 ± 0.48 for the first, -0.325 ± 0.42 for the second.

VNSFIDDSCLGMANPLPYWS and YWFHDCMRCCGNKILLLPDI are within error of each other in amyloid nucleation score: -1.03 ± 1 for the first, -0.712 ± 1.1 for the second.

VDTHSILASCLRVTKGVTDK and LSPRNPYAFVSAISDRIM are within error of each other in amyloid nucleation score: 0.138 ± 1.1 for the first, -0.97 ± 0.63 for the second.

Going from PSLFTVFNVRLFQE to TVSMLLGRRCVRFRVMVRVG, the amyloid nucleation score rises from 4.12 ± 0.072 to 4.79 ± 0.05.

Compared with ALGINFSWACG, LPYRSCLWFFFDIRNDVRVG is lower in amyloid nucleation score: 4.998 ± 0.043 for the first, 2.25 ± 0.12 for the second.

CREEDGLLDVSYKRSDMGGS and MYNQC are within error of each other in amyloid nucleation score: -0.267 ± 0.65 for the first, 0.271 ± 0.44 for the second.

First: WFACSLVAYRVLSSGTKAVM
Second: MKVVNCGCKHIFLRHCYALR
The amyloid nucleation score of the first is higher: 0.204 ± 0.34 for the first, -0.605 ± 0.45 for the second.

VNVPYIRMIDHLLTYTQL and VVRLSSYNASTPLSVSFRRG are within error of each other in amyloid nucleation score: -0.081 ± 1.1 for the first, -0.171 ± 0.74 for the second.

Going from CYSLYLRS to VSDLKVAQNCANKVIKLRYR, the amyloid nucleation score rises from -0.018 ± 1.1 to 5.01 ± 0.072.

AGWQCLCSLFLLKEITTCIS and QCDVSRGAFEGFPYVYMEMW are within error of each other in amyloid nucleation score: -0.367 ± 0.56 for the first, -1.4 ± 0.62 for the second.

Compared with MLDMVIYCISLYCSYTLRMR, CFLDGYWPGGELMKIGDYAL is lower in amyloid nucleation score: 1.42 ± 0.58 for the first, 0.248 ± 0.28 for the second.

First: LTISRSNLGARPF
Second: GVSHMALSSARSFMITDLRS
The amyloid nucleation score of the first is lower: -0.053 ± 0.39 for the first, 3.44 ± 0.14 for the second.

LRAGTKWTNPFEQVYMTWCG and DVCLHMGKYSNVLILGHNWS are within error of each other in amyloid nucleation score: 0.044 ± 1.1 for the first, -0.449 ± 0.36 for the second.

First: GIDWFTTVMFPAIWVTDILL
Second: VYLVKAGLYSRMNQLLPLCS
The amyloid nucleation score of the first is higher: 4.593 ± 0.044 for the first, 0.607 ± 0.34 for the second.

Compared with WSIPLSLMQSIRSCYNELIN, YIDRVTYRLSTGSTMEAWSA is lower in amyloid nucleation score: 3.67 ± 0.11 for the first, 0.688 ± 0.15 for the second.

First: VCGQILDYWFVYT
Second: GASSPGSAMLTVGILEVVVG
The amyloid nucleation score of the first is higher: 0.264 ± 0.23 for the first, -0.375 ± 0.31 for the second.

First: SYFNVNWARFQVGYSLIVCL
Second: CAGGFGLKPAFVYEFWCKSI
The amyloid nucleation score of the first is higher: 6.131 ± 0.04 for the first, -1.17 ± 1 for the second.

RGLCVGSSARFCVY and KCTFMTDFMIIDEVMYWNRC are within error of each other in amyloid nucleation score: 0.691 ± 0.6 for the first, 1.35 ± 0.46 for the second.

Going from VGTGLIIA to SNSMLASIVNHPSVSVMFFV, the amyloid nucleation score rises from 1.18 ± 0.47 to 6.035 ± 0.047.

VNYFVRGTVSK and SWCACSLGSQYGTMSGWLLY are within error of each other in amyloid nucleation score: 0.074 ± 0.74 for the first, 0.162 ± 0.37 for the second.

First: YLNWCSSSRNYLSMLYWPMV
Second: KFFLFDHNNNF
The amyloid nucleation score of the first is lower: -0.148 ± 0.5 for the first, 0.699 ± 0.33 for the second.

First: SMHEISVLLVDPVTLQYLG
Second: ANMTVVGWFCIRR
The amyloid nucleation score of the first is lower: 0.114 ± 0.63 for the first, 6.146 ± 0.058 for the second.

YANMGYQGLIRGIGVLDWIK and KPLCS are within error of each other in amyloid nucleation score: -0.119 ± 0.36 for the first, -0.58 ± 0.55 for the second.

Compared with WLNLGMNLLLE, VFKLCTSPFSCLIGRMGGTD is higher in amyloid nucleation score: 3.77 ± 0.093 for the first, 9.172 ± 0.063 for the second.

RKCQIRVMKNSD and SYLKYVDWQTFKVTWCAGGN are within error of each other in amyloid nucleation score: -0.858 ± 1.1 for the first, -0.38 ± 0.54 for the second.

Compared with NYIRYLRVYYIVGDELRPGN, FNTSFNSVFPCSYRRFTGDI is lower in amyloid nucleation score: 8.026 ± 0.048 for the first, 1.72 ± 0.097 for the second.

AFCAGVQAPEFPNLA and IVVSKVLLIWFPLLRRGANL are within error of each other in amyloid nucleation score: 0.437 ± 0.65 for the first, 0.159 ± 0.49 for the second.

TKGFVTGVGGRSLIIVGCGA and FRNSNLT are within error of each other in amyloid nucleation score: 0.664 ± 0.51 for the first, -0.462 ± 0.76 for the second.

First: TWWIELVKLGEMVVK
Second: RLEVGGTN
The amyloid nucleation score of the first is lower: 0.313 ± 0.65 for the first, 2.86 ± 0.11 for the second.

First: GNSGYPTV
Second: YKACRH
The amyloid nucleation score of the first is lower: 1.02 ± 0.24 for the first, 3.89 ± 0.055 for the second.

Going from ESAAER to SWLSQKSLESALRAIMNGKY, the amyloid nucleation score rises from -0.186 ± 0.76 to 2.13 ± 0.16.

NSLNSMVYYEYFYFLVYVCG and IDHINF are within error of each other in amyloid nucleation score: -0.015 ± 0.49 for the first, -0.524 ± 0.64 for the second.

First: GPTSVRISPPGVCVLCPPSP
Second: PISNLHILGFHHLTQHDRTV
The amyloid nucleation score of the first is lower: 0.133 ± 0.31 for the first, 1.05 ± 0.3 for the second.

NSVDSRWGDQLARICIHGMT and GSWDFSGAIMGLSYSKTVYI are within error of each other in amyloid nucleation score: 0.141 ± 0.42 for the first, -1.18 ± 1.1 for the second.

First: LCVKVFRRFYRHVHIVHVSQ
Second: ANRFSALFGPLLRVAPPKNS
The amyloid nucleation score of the first is lower: -0.337 ± 0.4 for the first, 1.18 ± 0.24 for the second.

Compared with SFINGILRFLSRRCNCIWLL, RYTYRHNVFTNMSLVYNTMP is higher in amyloid nucleation score: 0.14 ± 0.5 for the first, 2.88 ± 0.11 for the second.

In the case of KYTCLVMAL, the amyloid nucleation score is reported as 1.11 ± 0.28.

For QVSYNLCNR, the amyloid nucleation score was “inactive”.
With GCRTFDPSNGAAIDGAMSFV the amyloid nucleation score was “inactive”.
With TVMLFVSLQRCH the amyloid nucleation score was “inactive”.
With STSKDLMYDCL the amyloid nucleation score was “inactive”.
With NNYAADGRCNYWGSISLKVR the amyloid nucleation score was “inactive”.
In the case of KSCGLLAYDT, the amyloid nucleation score is reported as “inactive”.
For IMSSISRSNCVSLVV, the amyloid nucleation score was “inactive”.
For LRVKKYTDFHELEVGLFFWL, the amyloid nucleation score was “inactive”.
